# From the supplement of paper PMC9112550, “Optimization of the antimicrobial peptide Bac7 by deep mutational scanning” (BMC Biology, 2022)
# System: Escherichia coli TOP10
# Assay: shrunken log2 fold change of peptide-encoding DNA abundance (4.5 h post-induction vs induction); higher = less antimicrobial activity (less host growth inhibition)
# Settings: time post-induction: 4.5 h; library: site-saturation at positions 5, 18, 19, 20
# 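Also: peptides expressed intracellularly from a pBAD plasmid library in pooled LB shake-flask culture, induced with 0.3% L-arabinose, DNA abundance read by NGS, three biological replicates, DESeq2 with apeglm shrinkage.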
row,Sequence,shrunken log2 fold change
1,RRIRTRPPRLPRPRPRPQQVPRP,-0.231
2,RRIRWRPPRLPRPRPRPETYPRP,-0.231
3,RRIRPRPPRLPRPRPRPINQPRP,-0.24
4,RRIRPRPPRLPRPRPRPYCDPRP,-0.907
5,RRIRGRPPRLPRPRPRPSALPRP,1.38
6,RRIRMRPPRLPRPRPRPAPPPRP,1.43
7,RRIRGRPPRLPRPRPRPKRRPRP,1.3
8,RRIRHRPPRLPRPRPRPSQKPRP,-0.0338
9,RRIRMRPPRLPRPRPRPHGQPRP,0.155
10,RRIRWRPPRLPRPRPRPVDHPRP,0.0245
11,RRIRMRPPRLPRPRPRPLHHPRP,-0.0632
12,RRIRIRPPRLPRPRPRPIDSPRP,0.0203
13,RRIRDRPPRLPRPRPRPRPFPRP,0.691
14,RRIRERPPRLPRPRPRPAGIPRP,-0.536
15,RRIRDRPPRLPRPRPRPHKWPRP,-0.202
16,RRIRTRPPRLPRPRPRPMAWPRP,0.114
17,RRIRPRPPRLPRPRPRPDSSPRP,-0.000765
18,RRIRVRPPRLPRPRPRPFYSPRP,-0.3
19,RRIRQRPPRLPRPRPRPVWWPRP,0.015
20,RRIRARPPRLPRPRPRPIATPRP,1.21
21,RRIRIRPPRLPRPRPRPYHEPRP,-0.216
22,RRIRYRPPRLPRPRPRPDVCPRP,-0.124
23,RRIRHRPPRLPRPRPRPYKCPRP,-0.0105
24,RRIRARPPRLPRPRPRPLDLPRP,0.227
25,RRIRDRPPRLPRPRPRPNWLPRP,0.0018

row,Sequence,shrunken log2 fold change
1,RRIRIRPPRLPRPRPRPRAMPRP,-0.0601
2,RRIRLRPPRLPRPRPRPDNWPRP,-0.0493
3,RRIRNRPPRLPRPRPRPWYFPRP,-0.222
4,RRIRYRPPRLPRPRPRPTRGPRP,0.543
5,RRIRGRPPRLPRPRPRPPVGPRP,0.579
6,RRIRKRPPRLPRPRPRPGDYPRP,0.559
7,RRIRTRPPRLPRPRPRPWDQPRP,-0.00674
8,RRIRKRPPRLPRPRPRPDLIPRP,-0.275
9,RRIRGRPPRLPRPRPRPTTAPRP,1.31
10,RRIRQRPPRLPRPRPRPKNIPRP,-0.652
11,RRIRPRPPRLPRPRPRPLFKPRP,-0.348
12,RRIRPRPPRLPRPRPRPTHFPRP,0.442
13,RRIRMRPPRLPRPRPRPYMWPRP,-0.38
14,RRIRSRPPRLPRPRPRPYWTPRP,-0.141
15,RRIRVRPPRLPRPRPRPNHQPRP,-0.221
16,RRIRTRPPRLPRPRPRPVSQPRP,0.0169
17,RRIRMRPPRLPRPRPRPQMDPRP,0.224
18,RRIRFRPPRLPRPRPRPMYLPRP,-0.376
19,RRIRLRPPRLPRPRPRPFWIPRP,-0.283
20,RRIRIRPPRLPRPRPRPSYIPRP,-1.04
21,RRIRHRPPRLPRPRPRPRTLPRP,-0.137
22,RRIRTRPPRLPRPRPRPWGEPRP,0.183
23,RRIRKRPPRLPRPRPRPLPPPRP,1.01
24,RRIRHRPPRLPRPRPRPKCSPRP,-0.0294
25,RRIRYRPPRLPRPRPRPFCEPRP,-0.456

row,Sequence,shrunken log2 fold change
1,RRIRLRPPRLPRPRPRPSILPRP,-0.57
2,RRIRKRPPRLPRPRPRPEFDPRP,2.46
3,RRIRLRPPRLPRPRPRPEWQPRP,-0.0018
4,RRIRNRPPRLPRPRPRPNNTPRP,-0.798
5,RRIRYRPPRLPRPRPRPIGKPRP,0.0104
6,RRIRQRPPRLPRPRPRPSCDPRP,0.0694
7,RRIRERPPRLPRPRPRPHPIPRP,-0.0808
8,RRIRDRPPRLPRPRPRPYWSPRP,-0.503
9,RRIRSRPPRLPRPRPRPRQPPRP,0.268
10,RRIRVRPPRLPRPRPRPWTIPRP,-0.281
11,RRIRRRPPRLPRPRPRPPCKPRP,0.492
12,RRIRARPPRLPRPRPRPFWCPRP,0.0247
13,RRIRDRPPRLPRPRPRPLGTPRP,0.706
14,RRIRERPPRLPRPRPRPTIAPRP,-0.25
15,RRIRGRPPRLPRPRPRPYDVPRP,-0.00115
16,RRIRMRPPRLPRPRPRPTLLPRP,0.2
17,RRIRSRPPRLPRPRPRPSVNPRP,-0.119
18,RRIRGRPPRLPRPRPRPAMWPRP,1.02
19,RRIRVRPPRLPRPRPRPHDRPRP,0.068
20,RRIRRRPPRLPRPRPRPRSMPRP,0.468
21,RRIRVRPPRLPRPRPRPCPHPRP,-0.0391
22,RRIRGRPPRLPRPRPRPVGMPRP,0.907
23,RRIRERPPRLPRPRPRPCFGPRP,-0.252
24,RRIRMRPPRLPRPRPRPAMIPRP,-0.0626
25,RRIRQRPPRLPRPRPRPQVFPRP,0.131

row,Sequence,shrunken log2 fold change
1,RRIRGRPPRLPRPRPRPEQQPRP,-0.0199
2,RRIRERPPRLPRPRPRPKWNPRP,-0.447
3,RRIRDRPPRLPRPRPRPFPVPRP,-0.0955
4,RRIRARPPRLPRPRPRPIHPPRP,0.0444
5,RRIRKRPPRLPRPRPRPWCVPRP,-0.00029
6,RRIRTRPPRLPRPRPRPGFDPRP,-0.164
7,RRIRWRPPRLPRPRPRPGWYPRP,-0.0191
8,RRIRQRPPRLPRPRPRPSVMPRP,-0.283
9,RRIRIRPPRLPRPRPRPRRIPRP,-0.677
10,RRIRSRPPRLPRPRPRPAKSPRP,0.0744
11,RRIRCRPPRLPRPRPRPPFYPRP,-0.0226
12,RRIRARPPRLPRPRPRPNWCPRP,0.206
13,RRIRSRPPRLPRPRPRPMCWPRP,0.318
14,RRIRIRPPRLPRPRPRPLRDPRP,0.0322
15,RRIRVRPPRLPRPRPRPLQGPRP,-0.292
16,RRIRYRPPRLPRPRPRPPELPRP,0.162
17,RRIRQRPPRLPRPRPRPIIFPRP,-0.271
18,RRIRCRPPRLPRPRPRPAPFPRP,0.0214
19,RRIRPRPPRLPRPRPRPVSYPRP,-0.245
20,RRIRNRPPRLPRPRPRPESCPRP,0.073
21,RRIRIRPPRLPRPRPRPPYDPRP,-0.814
22,RRIRARPPRLPRPRPRPYMWPRP,-0.927
23,RRIRARPPRLPRPRPRPTDRPRP,0.0653
24,RRIRARPPRLPRPRPRPGFKPRP,-0.02
25,RRIRARPPRLPRPRPRPRAWPRP,0.699

row,Sequence,shrunken log2 fold change
1,RRIRRRPPRLPRPRPRPQFGPRP,-0.00169
2,RRIRSRPPRLPRPRPRPNDDPRP,0.0402
3,RRIRERPPRLPRPRPRPNLLPRP,0.107
4,RRIRPRPPRLPRPRPRPQHRPRP,0.162
5,RRIRPRPPRLPRPRPRPCKDPRP,-0.374
6,RRIRYRPPRLPRPRPRPLHHPRP,-1.14
7,RRIRSRPPRLPRPRPRPIHHPRP,-0.362
8,RRIRSRPPRLPRPRPRPDVMPRP,-0.0117
9,RRIRQRPPRLPRPRPRPDVNPRP,-0.142
10,RRIRCRPPRLPRPRPRPGTTPRP,0.844
11,RRIRSRPPRLPRPRPRPLPLPRP,-0.0835
12,RRIRVRPPRLPRPRPRPSRDPRP,-0.0563
13,RRIRHRPPRLPRPRPRPGPVPRP,0.26
14,RRIRMRPPRLPRPRPRPSPLPRP,0.302
15,RRIRDRPPRLPRPRPRPWIMPRP,-0.0114
16,RRIRIRPPRLPRPRPRPVVFPRP,0.0165
17,RRIRIRPPRLPRPRPRPEDCPRP,0.00952
18,RRIRTRPPRLPRPRPRPHENPRP,0.00752
19,RRIRMRPPRLPRPRPRPDKMPRP,0.323
20,RRIRGRPPRLPRPRPRPVRCPRP,0.814
21,RRIRRRPPRLPRPRPRPSCEPRP,0.13
22,RRIRYRPPRLPRPRPRPMCNPRP,-1.82
23,RRIRVRPPRLPRPRPRPAWMPRP,0.0871
24,RRIRYRPPRLPRPRPRPCHTPRP,-0.141
25,RRIRVRPPRLPRPRPRPFEQPRP,0.162
